In patent US11123413B2, “Carbapenemases for use with antibiotics for the protection of the intestinal microbiome” (priority 2015, dated 2021):
Several values for one entry are separate records, joined by “and”; a condition that tells them apart may be missing. Identical values can stand only once.

What was measured:
[1] = Oral P2A and intravenous ceftriaxone in jejunal-fistulated dogs; format: in vivo, laboratory beagles; conditions: peroral P2A 2.5 mg/kg, intravenous ceftriaxone 30 mg/kg, omeprazole
Protocol: The ability of P2A to degrade ceftriaxone in the dog intestinal tract was evaluated using laboratory beagles that had permanent jejunal fistulas. The fistulas allowed the repeated collection of jejunal chyme specimens from these animals. Dogs were treated with peroral P2A (2.5 mg/kg) in a liquid formulation (PBS buffer), and/or intravenous ceftriaxone (30 mg/kg). A single dose of omeprazole (10 mg) was delivered orally to each dog prior to treatment with ceftriaxone and/or P2A to inhibit the HCl activity in the stomach to potentially reduce P2A degradation. Serum samples were collected and serum ceftriaxone levels quantified. Jejunal chyme samples were collected and ceftriaxone and P2A levels were quantified. Ceftriaxone levels in serum and chyme were measured using a plate diffusion method using ceftriaxone susceptible Micrococcus luteus TS504 as the test strain. P2A activity levels in chyme were determined spectrophotometrically using meropenem as a substrate. Meropenem hydrolysis was monitored at a wavelength of 297 nm.

[2] = P2A concentration estimate and specific activity in cell lysates (CENTA assay, P2A protein standard); format: biochemical; conditions: BLR (DE3) P2A Clone 1 lysate, replicates 1 and 2
Protocol: To achieve an estimate of the amount of P2A protein in each of the lysates, dilutions of the lysates (5 ul, 2.5 ul, 1.3 ul, and 0.63 ul) were evaluated on SDS/PAGE compared to dilutions of a purified P2A standard protein (2.0 ug, 1.0 ug, 0.5 ug, 0.25 ug, 0.13 ug). Based on the P2A protein band intensities, an estimate of the amount of P2A protein in each of the lysates was obtained. The biological activity of the P2A protein in the cell lysates under the different lysing conditions was evaluated using the CENTA chromogenic assay compared to the biological activity of the P2A protein standard. The biological activity was normalized based on the P2A protein concentration estimate and an estimated P2A specific activity was obtained. […] The P2A expression cassette without the leader will be used for future studies.
Based on the P2A protein band intensities, an estimate of the amount of P2A protein in each of the lysates was obtained. The biological activity of the P2A protein in these cell lysates was evaluated using the CENTA chromogenic assay compared to the biological activity of the P2A protein standard. The biological activity was normalized based on the P2A protein concentration estimate and an estimated P2A specific activity was obtained.

[3] = Proteolytic cleavage of NDM in 2% human chyme or porcine pancreatic elastase, N-terminal sequencing of fragments; format: in vitro ADME; conditions: 500 ug/mL in 2% mixed human chyme
Protocol: The loss of NDM activity upon incubation with human chyme was due to the proteolytic cleavage of NDM by endogenous proteases present in human chyme. To map the cleavage sites within the NDM protein, NDM ([…]) was incubated with 2% mixed human chyme (human chyme diluted with incubation buffer, 20 mM Hepes pH 6.2; 150 mM NaCl, 100 uM ZnSO4) for times ranging from 0 to 180 minutes. Twenty microliters of each sample (1 ug) was removed and transferred to 20 μL of 2× denaturing sample buffer for a final concentration of 25 ng/μL. The samples were boiled and 10 μL (250 ng of NDM) was subjected to analysis by SDS-PAGE. NDM was rapidly degraded, in 0-15 minutes, into 5 distinct cleavage fragments (FIG. 26). […]
To map the proteolytic cleavage sites of the NDM fragments, NDM was incubated with 2% mixed human chyme as described for 0 or 15 minutes. […] The NDM digestions were analyzed by SDS/PAGE, the gel equilibrated in 1× Tris-Glycine transfer buffer and the proteins were transferred to an equilibrated Sequi-Blot PVDF membrane by wet transfer in Tris-glycine buffer. […] The isolated fragments were analyzed by N-terminal sequencing of the first 5 amino acids using a Perkin Elmer Applied Biosystems Model 494 Procise protein/peptide sequencer with an on-line Perkin Elmer Applied Biosystems Model 140C PTH Amino Acid Analyzer. […]

| Molecule | ceftriaxone in jejunal chyme [1] | effect on serum levels of ceftriaxone [1] | % Activity Compared to P2A standard ([2]; induction 18 o/n) | P2A-lactamase Activity ([2]; induction 18 o/n) | % Activity Compared to P2A standard ([2]; induction 25 on) | P2A-lactamase Activity ([2]; induction 25 on) | % Activity Compared to P2A standard ([2]; induction 37 3 hrs) | P2A-lactamase Activity ([2]; induction 37 3 hrs) | time at which protein and fragments were undetectable [3] [min] | time of degradation into 5 distinct cleavage fragments [3] [min] |
| --- | --- | --- | --- | --- | --- | --- | --- | --- | --- | --- |
| P2A: broad spectrum carbapenemase, class B metallo-enzyme requiring zinc, SEQ ID NO: 37; P2A-21 = product of strain SYT-PP0602-21 (protein) ETGTISISQLNKNVWVHTELGYFNGEAVPSNGLVLNTSKGLVLVDSSWDNKLTKELIEMVEKKFQKRVTDVIITHAHADRIGGITALKERGIKAHSTALTAELAKNSGYEEPLGDLQTITSLKFGNTKVETFYPGKGHTEDNIVVWLPQYQILAGGCLVKSAEAKDLGNVADAYVNEWSTSIENVLKRYGNINSVVPGHGEVGDKGLLLHTLDLLK | degraded ceftriaxone | does not reduce serum levels of ceftriaxone | 103% and 156% | 0.21 mg/mL and 0.16 mg/mL | 148% and 135% | 0.30 mg/mL and 0.27 mg/mL | 131% and 182% | 0.13 mg/mL and 0.18 mg/mL | – | – |
| NDM: New Delhi metallo-β-lactamase NDM-1; NDM-68 = product of strain STY-NP1602-68 (STII Δ35, N-terminal GQQMETG) (protein) GQQMETGDQRFGDLVFRQLAPNVWQHTSYLDMPGFGAVASNGLIVRDGGRVLVVDTAWTDDQTAQILNWIKQEINLPVALAVVTHAHQDKMGGMDALHAAGIATYANALSNQLAPQEGMVAAQHSLTFAANGWVEPATAPNFGPLKVFYPGPGHTSDNITVGIDGTDIAFGGCLIKDSKAKSLGNLGDADTEHYAASARAFGAAFPKASMIVMSHSAPDSRAAITHTARMADKLR | – | – | – | – | – | – | – | – | 60 to 90 | 0 to 15 |
